Experimental data: IntAct's records for PubMed 31515488

B1: Lymphokine-activated killer T-cell-originated protein kinase (Homo sapiens), Q96KB5 (parent)
chain: MEGISNFKTPSKLSEKKKSVLCSTPTINIPASPFMQKLGFGTGVNVYLMKRSPRGLSHSPWAVKKINPICNDHYRSVYQKRLMDEAKILKSLHHPNIVGYRAFTEANDGSLCLAMEYGGEKSLNDLIEERYKASQDPFPAAIILKVALNMARGLKYLHQEKKLLHGDIKSSNVVIKGDFETIKICDVGVSLPLDENMTVTDPEACYIGTEPWKPKEAVEENGVITDKADIFAFGLTLWEMMTLSIPHINLSNDDDDEDKTFDESDFDDEAYYAALGTRPPINMEELDESYQKVIELFSVCTNEDPKDRPSAAHIVEALETDV
partner: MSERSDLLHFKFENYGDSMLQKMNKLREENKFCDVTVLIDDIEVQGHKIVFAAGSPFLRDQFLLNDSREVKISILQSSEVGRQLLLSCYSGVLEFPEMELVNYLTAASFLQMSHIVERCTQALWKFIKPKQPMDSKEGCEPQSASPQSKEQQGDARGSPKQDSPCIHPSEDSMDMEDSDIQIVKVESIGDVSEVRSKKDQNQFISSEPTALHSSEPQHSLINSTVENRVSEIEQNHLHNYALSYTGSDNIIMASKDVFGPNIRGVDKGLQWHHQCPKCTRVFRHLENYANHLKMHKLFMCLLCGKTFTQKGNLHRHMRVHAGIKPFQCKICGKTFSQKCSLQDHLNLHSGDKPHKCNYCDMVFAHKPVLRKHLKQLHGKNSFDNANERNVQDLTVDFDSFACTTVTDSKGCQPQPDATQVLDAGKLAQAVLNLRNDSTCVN
B2: MTRF1L release factor glutamine methyltransferase (Homo sapiens), Q9Y5R4 (parent)
chain: MELWGRMLWALLSGPGRRGSTRGWAFSSWQPQPPLAGLSSAIELVSHWTGVFEKRGIPEARESSEYIVAHVLGAKTFQSLRPALWTQPLTSQQLQCIRELSSRRLQRMPVQYILGEWDFQGLSLRMVPPVFIPRPETEELVEWVLEEVAQRSHAVGSPGSPLILEVGCGSGAISLSLLSQLPQSRVIAVDKREAAISLTHENAQRLRLQDRIWIIHLDMTSERSWTHLPWGPMDLIVSNPPYVFHQDMEQLAPEIRSYEDPAALDGGEEGMDIITHILALAPRLLKDSGSIFLEVDPRHPELVSSWLQSRPDLYLNLVAVRRDFCGRPRFLHIRRSGP
partner: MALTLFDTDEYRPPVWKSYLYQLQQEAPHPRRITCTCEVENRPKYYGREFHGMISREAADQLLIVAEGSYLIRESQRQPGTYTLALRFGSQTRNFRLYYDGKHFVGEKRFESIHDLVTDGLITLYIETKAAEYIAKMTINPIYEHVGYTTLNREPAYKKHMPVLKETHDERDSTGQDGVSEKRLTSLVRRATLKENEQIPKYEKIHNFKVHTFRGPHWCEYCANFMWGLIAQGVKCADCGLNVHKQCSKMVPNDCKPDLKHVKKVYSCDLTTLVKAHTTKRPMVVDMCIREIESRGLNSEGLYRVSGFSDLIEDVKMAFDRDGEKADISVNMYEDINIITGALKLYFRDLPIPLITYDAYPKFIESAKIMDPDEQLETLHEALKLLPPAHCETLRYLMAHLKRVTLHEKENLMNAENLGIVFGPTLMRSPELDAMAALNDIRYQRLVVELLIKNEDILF
B3: "Bile acid-CoA:amino acid N-acyltransferase" (Homo sapiens), Q14032 (parent)
chain: MIQLTATPVSALVDEPVHIRATGLIPFQMVSFQASLEDENGDMFYSQAHYRANEFGEVDLNHASSLGGDYMGVHPMGLFWSLKPEKLLTRLLKRDVMNRPFQVQVKLYDLELIVNNKVASAPKASLTLERWYVAPGVTRIKVREGRLRGALFLPPGEGLFPGVIDLFGGLGGLLEFRASLLASRGFASLALAYHNYEDLPRKPEVTDLEYFEEAANFLLRHPKVFGSGVGVVSVCQGVQIGLSMAIYLKQVTATVLINGTNFPFGIPQVYHGQIHQPLPHSAQLISTNALGLLELYRTFETTQVGASQYLFPIEEAQGQFLFIVGEGDKTINSKAHAEQAIGQLKRHGKNNWTLLSYPGAGHLIEPPYSPLCCASTTHDLRLHWGGEVIPHAAAQEHAWKEIQRFLRKHLIPDVTSQL
B4: Tektin-3 (Homo sapiens), Q9BXF9 (parent)
chain: MERVGCTLTTTYAHPRPTPTNFLPAISTMASSYRDRFPHSNLTHSLSLPWRPSTYYKVASNSPSVAPYCTRSQRVSENTMLPFVSNRTTFFTRYTPDDWYRSNLTNYQESNTSRHNSEKLRVDTSRLIQDKYQQTRKTQADTTQNLGERVNDIGFWKSEIIHELDEMIGETNALTDVKKRLERALMETEAPLQVARECLFHREKRMGIDLVHDEVEAQLLTEVDTILCCQERMKLHLDKAIAQLAANRASQHELEKDLSDKQTAYRIDDKCHHLRNTSDGVGYFRGVERVDATVSVPESWAKFTDDNILRSQSERAASAKLRDDIENLLVVTANEMWNQFNKVNLSFTNRIAETADAKNKIQTHLAKTLQEIFQTEMTIESIKKAIKDKTAFLKVAQTRLDERTRRPNIELCRDMAQLRLVNEVHEVDDTIQTLQQRLRDAEDTLQSLVHIKATLEYDLAVKANSLYIDQEKCMSMRKSYPNTLRLVGFC
partner: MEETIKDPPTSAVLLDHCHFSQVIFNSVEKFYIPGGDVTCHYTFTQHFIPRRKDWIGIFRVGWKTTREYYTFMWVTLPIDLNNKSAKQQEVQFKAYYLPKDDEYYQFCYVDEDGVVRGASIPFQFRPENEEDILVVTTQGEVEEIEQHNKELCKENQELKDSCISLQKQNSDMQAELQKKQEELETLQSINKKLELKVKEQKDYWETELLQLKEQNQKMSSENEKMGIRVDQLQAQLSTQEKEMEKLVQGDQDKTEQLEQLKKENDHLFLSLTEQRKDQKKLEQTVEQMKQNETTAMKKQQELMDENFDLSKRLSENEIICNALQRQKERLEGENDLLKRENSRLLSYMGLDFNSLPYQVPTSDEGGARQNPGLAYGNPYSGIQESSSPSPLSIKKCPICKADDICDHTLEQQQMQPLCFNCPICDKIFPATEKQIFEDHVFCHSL
B5: Centrosomal protein POC5 (Homo sapiens), Q8NA72 (parent)
chain: MSSDEEKYSLPVVQNDSSRGSSVSSNLQEEYEELLHYAIVTPNIEPCASQSSHPKGELVPDVRISTIHDILHSQGNNSEVRETAIEVGKGCDFHISSHSKTDESSPVLSPRKPSHPVMDFFSSHLLADSSSPATNSSHTDAHEILVSDFLVSDENLQKMENVLDLWSSGLKTNIISELSKWRLNFIDWHRMEMRKEKEKHAAHLKQLCNQINELKELQKTFEISIGRKDEVISSLSHAIGKQKEKIELMRTFFHWRIGHVRARQDVYEGKLADQYYQRTLLKKVWKVWRSVVQKQWKDVVERACQARAEEVCIQISNDYEAKVAMLSGALENAKAEIQRMQHEKEHFEDSMKKAFMRGVCALNLEAMTIFQNRNDAGIDSTNNKKEEYGPGVQGKEHSAHLDPSAPPMPLPVTSPLLPSPPAAVGGASATAVPSAASMTSTRAASASSVHVPVSALGAGSAATAASEEMYVPRVVTSAQQKAGRTITARITGRCDFASKNRISSSLAIMGVSPPMSSVVVEKHHPVTVQTIPQATAAKYPRTIHPESSTSASRSLGTRSAHTQSLTSVHSIKVVD
B6: Zinc finger CCCH-type with G patch domain-containing protein (Homo sapiens), Q8N5A5 (parent)
chain: MDEESLESALQTYRAQLQQVELALGAGLDSSEQADLRQLQGDLKELIELTEASLVSVRKSSLLAALDEERPGRQEDAEYQAFREAITEAVEAPAAARGSGSETVPKAEAGPESAAGGQEEEEGEDEEELSGTKVSAPYYSSWGTLEYHNAMVVGTEEAEDGSAGVRVLYLYPTHKSLKPCPFFLEGKCRFKENCRFSHGQVVSLDELRPFQDPDLSSLQAGSACLAKHQDGLWHAARITDVDNGYYTVKFDSLLLREAVVEGDGILPPLRTEATESDSDSDGTGDSSYARVVGSDAVDSAQSSALCPSLAVVGSDAVDSGTCSSAFAGWEVHTRGIGSRLLTKMGYEFGKGLGRHAEGRVEPIHAVVLPRGKSLDQCVETLQKQTRVGKAGTNKPPRCRGRGARPGGRPAPRNVFDFLNEKLQGQAPGALEAGAAPAGRRSKDMYHASKSAKRALSLRLFQTEEKIERTQRDIRSIQEALARNAGRHSVASAQLQEKLAGAQRQLGQLRAQEAGLQQEQRKADTHKKMTEF
B7: Syntenin-1 (Homo sapiens), O00560 (parent)
chain: MSLYPSLEDLKVDKVIQAQTAFSANPANPAILSEASAPIPHDGNLYPRLYPELSQYMGLSLNEEEIRANVAVVSGAPLQGQLVARPSSINYMVAPVTGNDVGIRRAEIKQGIREVILCKDQDGKIGLRLKSIDNGIFVQLVQANSPASLVGLRFGDQVLQINGENCAGWSSDKAHKVLKQAFGEKITMTIRDRPFERTITMHKDSTGHVGFIFKNGKITSIVKDSSAARNGLLTEHNICEINGQNVIGLKDSQIADILSTSGTVVTITIMPAFIFEHIIKRMAPSIMKSLMDHTIPEV
partner: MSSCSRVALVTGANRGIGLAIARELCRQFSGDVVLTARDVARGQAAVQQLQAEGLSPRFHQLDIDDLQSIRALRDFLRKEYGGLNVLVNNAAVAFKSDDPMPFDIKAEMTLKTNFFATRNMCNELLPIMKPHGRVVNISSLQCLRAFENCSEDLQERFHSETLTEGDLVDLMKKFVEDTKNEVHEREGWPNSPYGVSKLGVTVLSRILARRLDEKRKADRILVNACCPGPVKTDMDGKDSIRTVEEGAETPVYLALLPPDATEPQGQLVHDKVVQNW
B8: Nucleoporin p58/p45 (Homo sapiens), Q9BVL2 (parent)
chain: MSTGFSFGSGTLGSTTVAAGGTSTGGVFSFGTGASSNPSVGLNFGNLGSTSTPATTSAPSSGFGTGLFGSKPATGFTLGGTNTGIATTITTGLTLGTPATTSAATTGFSLGFNKPAASATPFALPITSTSASGLTLSSALTSTPAASTGFTLNNLGGTTATTTTASTGLSLGGALAGLGGSLFQSTNTGTSGLGQNALGLTLGTTAATSTAGNEGLGGIDFSSSSDKKSDKTGTRPEDSKALKDENLPPVICQDVENLQKFVKEQKQVQEEISRMSSKAMLKVQEDIKALKQLLSLAANGIQRNTLNIDKLKIETAQELKNAEIALRTQKTPPGLQHEYAAPADYFRILVQQFEVQLQQYRQQIEELENHLATQANNSHITPQDLSMAMQKIYQTFVALAAQLQSIHENVKVLKEQYLGYRKMFLGDAVDVFETRRAEAKKWQNTPRVTTGPTPFSTMPNAAAVAMAATLTQQQQPATGPQPSLGVSFGTPFGSGIGTGLQSSGLGSSNLGGFGTSSGFGCSTTGASTFGFGTTNKPSGSLSAGFGSSSTSGFNFSNPGITASAGLTFGVSNPASAGFGTGGQLLQLKKPPAGNKRGKR
B9: Caspase recruitment domain-containing protein 9 (Homo sapiens), Q9H257 (parent)
chain: MSDYENDDECWSVLEGFRVTLTSVIDPSRITPYLRQCKVLNPDDEEQVLSDPNLVIRKRKVGVLLDILQRTGHKGYVAFLESLELYYPQLYKKVTGKEPARVFSMIIDASGESGLTQLLMTEVMKLQKKVQDLTALLSSKDDFIKELRVKDSLLRKHQERVQRLKEECEAGSRELKRCKEENYDLAMRLAHQSEEKGAALMRNRDLQLEIDQLKHSLMKAEDDCKVERKHTLKLRHAMEQRPSQELLWELQQEKALLQARVQELEASVQEGKLDRSSPYIQVLEEDWRQALRDHQEQANTIFSLRKDLRQGEARRLRCMEEKEMFELQCLALRKDSKMYKDRIEAILLQMEEVAIERDQAIATREELHAQHARGLQEKDALRKQVRELGEKADELQLQVFQCEAQLLAVEGRLRRQQLETLVLSSDLEDGSPRRSQELSLPQDLEDTQLSDKGCLAGGGSPKQPFAALHQEQVLRNPHDAGLSSGEPPEKERRRLKESFENYRRKRALRKMQKGWRQGEEDRENTTGSDNTDTEGS

Variants of: B1
Settings: with zbt26_human ZBTB26, Q9HCK0

effect of a mutation on the interaction	Variant
with no effect	E220D

Variants of: B2
Settings: with chin_human CHN1, P15882

effect of a mutation on the interaction	Variant
disrupting interaction strength	H200Q

Variants of: B3
Settings: with FBP1, P09467
FBP1, P09467, sequence (P09467 whole entry): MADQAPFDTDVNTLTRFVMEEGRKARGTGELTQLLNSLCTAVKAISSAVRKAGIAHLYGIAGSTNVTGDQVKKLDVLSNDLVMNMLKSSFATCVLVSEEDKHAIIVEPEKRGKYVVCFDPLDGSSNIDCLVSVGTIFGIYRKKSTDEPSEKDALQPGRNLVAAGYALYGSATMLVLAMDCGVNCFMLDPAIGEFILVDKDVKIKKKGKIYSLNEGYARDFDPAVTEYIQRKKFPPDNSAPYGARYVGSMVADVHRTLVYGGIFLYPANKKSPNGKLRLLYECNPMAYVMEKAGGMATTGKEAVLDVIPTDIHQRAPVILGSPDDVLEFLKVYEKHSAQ

effect of a mutation on the interaction	Variant
with no effect	V304A
with no effect	R201P

Variants of: B3
Settings: with fhl3_human FHL3, Q13643
fhl3_human FHL3, Q13643, sequence (Q13643 whole entry): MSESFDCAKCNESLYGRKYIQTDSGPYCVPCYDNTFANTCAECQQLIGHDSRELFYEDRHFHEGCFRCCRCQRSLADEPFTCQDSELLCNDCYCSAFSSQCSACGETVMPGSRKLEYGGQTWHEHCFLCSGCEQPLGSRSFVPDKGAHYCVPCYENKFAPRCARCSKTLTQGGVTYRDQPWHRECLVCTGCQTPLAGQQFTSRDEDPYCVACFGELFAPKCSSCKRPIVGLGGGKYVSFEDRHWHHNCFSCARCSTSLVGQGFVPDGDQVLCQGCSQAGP

effect of a mutation on the interaction	Variant
with no effect	A182S

Variants of: B4
Settings: with caco2_human CALCOCO2, Q13137

effect of a mutation on the interaction	Variant
with no effect	G282A
with no effect	R196Q
with no effect	Q129K

Variants of: B5
Settings: with cetn1_human CETN1, Q12798
cetn1_human CETN1, Q12798, sequence (Q12798 whole entry): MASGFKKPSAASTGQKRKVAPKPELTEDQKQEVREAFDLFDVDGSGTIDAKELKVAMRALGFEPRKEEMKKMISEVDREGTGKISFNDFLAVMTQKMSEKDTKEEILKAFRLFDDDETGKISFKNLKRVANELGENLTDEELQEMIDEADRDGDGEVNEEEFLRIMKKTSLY

effect of a mutation on the interaction	Variant
with no effect	R302K
with no effect	A446T
with no effect	I175M

The next lines start with the variant.

Variant	effect of a mutation on the interaction
I85T	with no effect
H36R	with no effect
D148N	with no effect

Variants of: B5
Settings: with cetn2_human CETN2, P41208
cetn2_human CETN2, P41208, sequence (P41208 whole entry): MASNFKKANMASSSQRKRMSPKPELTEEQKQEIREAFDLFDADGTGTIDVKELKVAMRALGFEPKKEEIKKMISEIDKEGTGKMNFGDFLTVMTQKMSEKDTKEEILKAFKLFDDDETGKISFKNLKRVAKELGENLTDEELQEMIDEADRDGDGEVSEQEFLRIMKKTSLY

effect of a mutation on the interaction	Variant
with no effect	H36R

Variants of: B6
Settings: with tfp11_human TFIP11, Q9UBB9
tfp11_human TFIP11, Q9UBB9, sequence (Q9UBB9 whole entry): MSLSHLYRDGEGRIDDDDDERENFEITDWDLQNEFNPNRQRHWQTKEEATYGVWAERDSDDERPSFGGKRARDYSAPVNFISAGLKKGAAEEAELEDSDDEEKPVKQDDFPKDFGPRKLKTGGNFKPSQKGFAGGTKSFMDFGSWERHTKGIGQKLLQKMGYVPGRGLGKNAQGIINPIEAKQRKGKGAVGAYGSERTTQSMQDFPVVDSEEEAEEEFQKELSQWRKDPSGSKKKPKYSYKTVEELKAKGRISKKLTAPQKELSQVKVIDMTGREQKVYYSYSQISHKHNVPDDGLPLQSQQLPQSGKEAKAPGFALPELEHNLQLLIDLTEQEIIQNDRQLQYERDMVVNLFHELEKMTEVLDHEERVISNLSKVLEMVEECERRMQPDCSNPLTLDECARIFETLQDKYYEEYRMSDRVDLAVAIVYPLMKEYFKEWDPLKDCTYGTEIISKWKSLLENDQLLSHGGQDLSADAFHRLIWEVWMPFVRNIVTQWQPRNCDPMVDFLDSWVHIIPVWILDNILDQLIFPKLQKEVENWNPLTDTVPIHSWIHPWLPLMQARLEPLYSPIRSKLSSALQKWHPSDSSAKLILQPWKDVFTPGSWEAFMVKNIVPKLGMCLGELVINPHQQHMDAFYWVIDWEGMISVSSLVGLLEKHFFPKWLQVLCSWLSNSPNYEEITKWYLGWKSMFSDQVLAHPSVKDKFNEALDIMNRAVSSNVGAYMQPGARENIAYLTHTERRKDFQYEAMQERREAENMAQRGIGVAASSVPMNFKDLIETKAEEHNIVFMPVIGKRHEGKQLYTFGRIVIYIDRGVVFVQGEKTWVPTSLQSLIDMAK

effect of a mutation on the interaction	Variant
with no effect	S61R

Variants of: B6
Settings: with cep70_human CEP70, Q8NHQ1
cep70_human CEP70, Q8NHQ1, sequence (Q8NHQ1 whole entry): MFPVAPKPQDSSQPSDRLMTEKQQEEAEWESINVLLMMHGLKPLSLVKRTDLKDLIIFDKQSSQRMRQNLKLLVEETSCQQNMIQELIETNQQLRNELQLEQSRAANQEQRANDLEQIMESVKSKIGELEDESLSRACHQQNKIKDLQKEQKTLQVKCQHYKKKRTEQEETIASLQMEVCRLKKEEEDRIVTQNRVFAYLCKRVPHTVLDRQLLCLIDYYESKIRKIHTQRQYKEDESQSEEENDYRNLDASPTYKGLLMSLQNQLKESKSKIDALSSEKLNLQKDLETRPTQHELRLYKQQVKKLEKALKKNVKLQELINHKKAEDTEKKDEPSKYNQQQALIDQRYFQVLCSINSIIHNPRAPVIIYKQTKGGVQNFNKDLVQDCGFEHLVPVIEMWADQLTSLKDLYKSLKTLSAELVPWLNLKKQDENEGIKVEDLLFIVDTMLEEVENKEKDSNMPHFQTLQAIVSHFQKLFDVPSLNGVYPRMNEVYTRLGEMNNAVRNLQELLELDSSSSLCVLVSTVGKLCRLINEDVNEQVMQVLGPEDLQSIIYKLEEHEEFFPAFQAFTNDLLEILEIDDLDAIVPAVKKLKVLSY

effect of a mutation on the interaction	Variant
with no effect	S61R

Variants of: B6
Settings: with ldoc1_human LDOC1, O95751
ldoc1_human LDOC1, O95751, sequence (O95751 whole entry): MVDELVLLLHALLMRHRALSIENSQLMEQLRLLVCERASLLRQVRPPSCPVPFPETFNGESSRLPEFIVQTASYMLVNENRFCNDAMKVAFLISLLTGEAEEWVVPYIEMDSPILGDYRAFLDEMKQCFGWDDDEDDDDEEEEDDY

effect of a mutation on the interaction	Variant
with no effect	S61R

Variants of: B7
Settings: with cbr3_human CBR3, O75828

effect of a mutation on the interaction	Variant
with no effect	K124R

Variants of: B8
Settings: with nup62_human NUP62, P37198
nup62_human NUP62, P37198, sequence (P37198 whole entry): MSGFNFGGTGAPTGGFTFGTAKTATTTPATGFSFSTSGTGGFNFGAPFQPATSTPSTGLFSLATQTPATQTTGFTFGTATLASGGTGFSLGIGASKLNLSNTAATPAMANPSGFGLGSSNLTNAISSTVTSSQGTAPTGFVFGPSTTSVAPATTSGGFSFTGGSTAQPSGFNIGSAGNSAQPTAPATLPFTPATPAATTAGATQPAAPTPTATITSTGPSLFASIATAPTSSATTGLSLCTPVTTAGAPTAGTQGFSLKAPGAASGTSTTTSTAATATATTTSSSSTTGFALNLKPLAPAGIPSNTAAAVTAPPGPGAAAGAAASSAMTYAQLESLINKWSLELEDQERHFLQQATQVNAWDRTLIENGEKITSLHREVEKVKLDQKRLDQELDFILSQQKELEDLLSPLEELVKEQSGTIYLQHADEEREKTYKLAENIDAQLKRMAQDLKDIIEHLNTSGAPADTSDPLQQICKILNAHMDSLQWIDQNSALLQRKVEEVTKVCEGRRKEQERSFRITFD

effect of a mutation on the interaction	Variant
with no effect	A34T

Variants of: B8
Settings: with traf1_human TRAF1, Q13077
traf1_human TRAF1, Q13077, sequence (Q13077 whole entry): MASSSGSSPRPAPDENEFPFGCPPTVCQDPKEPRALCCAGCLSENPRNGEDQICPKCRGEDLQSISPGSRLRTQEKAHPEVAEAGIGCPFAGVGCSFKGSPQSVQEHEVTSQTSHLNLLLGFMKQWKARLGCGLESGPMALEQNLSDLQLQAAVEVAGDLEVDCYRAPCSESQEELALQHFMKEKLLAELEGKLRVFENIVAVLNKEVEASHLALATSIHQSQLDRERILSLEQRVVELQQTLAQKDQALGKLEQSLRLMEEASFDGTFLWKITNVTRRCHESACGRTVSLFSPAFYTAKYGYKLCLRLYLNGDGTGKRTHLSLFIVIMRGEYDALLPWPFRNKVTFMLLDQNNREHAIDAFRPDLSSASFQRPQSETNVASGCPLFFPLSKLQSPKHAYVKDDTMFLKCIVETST

effect of a mutation on the interaction	Variant
with no effect	A34T

Variants of: B9
Settings: with pak5_human PAK5, Q9P286
pak5_human PAK5, Q9P286, sequence (Q9P286 whole entry, looked up): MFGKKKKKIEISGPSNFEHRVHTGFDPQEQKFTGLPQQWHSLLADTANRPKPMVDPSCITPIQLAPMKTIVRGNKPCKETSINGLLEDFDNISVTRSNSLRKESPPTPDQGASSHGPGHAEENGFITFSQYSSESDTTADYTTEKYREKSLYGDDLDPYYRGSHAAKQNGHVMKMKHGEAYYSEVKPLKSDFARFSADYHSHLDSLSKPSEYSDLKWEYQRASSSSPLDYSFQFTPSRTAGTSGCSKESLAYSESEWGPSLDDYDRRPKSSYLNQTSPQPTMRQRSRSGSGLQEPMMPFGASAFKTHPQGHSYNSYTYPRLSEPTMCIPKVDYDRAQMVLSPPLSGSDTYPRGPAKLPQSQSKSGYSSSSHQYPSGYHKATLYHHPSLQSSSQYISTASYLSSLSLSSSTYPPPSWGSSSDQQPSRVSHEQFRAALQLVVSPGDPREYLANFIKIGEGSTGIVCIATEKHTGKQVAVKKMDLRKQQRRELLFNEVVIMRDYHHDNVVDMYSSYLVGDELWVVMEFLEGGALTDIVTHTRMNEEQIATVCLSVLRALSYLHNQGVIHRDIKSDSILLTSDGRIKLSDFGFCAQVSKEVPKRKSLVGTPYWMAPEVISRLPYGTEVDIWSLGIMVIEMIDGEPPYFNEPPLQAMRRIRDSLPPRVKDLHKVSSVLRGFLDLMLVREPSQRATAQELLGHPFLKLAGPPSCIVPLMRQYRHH

effect of a mutation on the interaction	Variant
with no effect	V385L

Variants of: B9
Settings: with zn572_human ZNF572, Q7Z3I7
zn572_human ZNF572, Q7Z3I7, sequence (Q7Z3I7 whole entry): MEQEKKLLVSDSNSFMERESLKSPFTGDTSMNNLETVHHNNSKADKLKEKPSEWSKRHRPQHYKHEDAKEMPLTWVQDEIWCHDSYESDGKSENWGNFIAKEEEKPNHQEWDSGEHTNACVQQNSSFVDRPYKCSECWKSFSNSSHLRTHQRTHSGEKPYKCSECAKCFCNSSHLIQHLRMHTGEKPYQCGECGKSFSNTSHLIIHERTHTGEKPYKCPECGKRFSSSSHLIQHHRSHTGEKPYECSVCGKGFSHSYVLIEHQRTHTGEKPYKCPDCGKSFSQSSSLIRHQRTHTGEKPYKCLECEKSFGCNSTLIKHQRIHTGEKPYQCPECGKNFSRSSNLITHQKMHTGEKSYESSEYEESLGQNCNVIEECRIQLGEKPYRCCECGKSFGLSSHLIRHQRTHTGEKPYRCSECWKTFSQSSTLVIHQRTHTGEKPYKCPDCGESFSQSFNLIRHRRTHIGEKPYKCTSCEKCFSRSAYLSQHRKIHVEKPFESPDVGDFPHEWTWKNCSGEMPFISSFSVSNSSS

effect of a mutation on the interaction	Variant
disrupting interaction strength	V385L
